The RNAGym collection of RNA variant scans (doi:10.7554/elife.80360)

B1: HDV Ribozyme (parent)
chain: GGCCGGCAUGGUCCCAGCCUCCUCGCUGGCGCCGGCUGGGCAACAUUCCGAGGGGACCGUCCCCUCGGUAAUGGCGAAUGGGACCCA

Variants of: B1
Experiment: self-cleavage, relative activity (ratio to wild type); higher = more cleavage; co-transcriptional

Variant | self-cleavage
GGCCGGCAUGGUCCCAGCCUCCUCGCUGGCGCCGGCGGGGCAACAUUACGAGGGGACCGUCCCCUCGGUAAUGGCGAAUGGGACCCA | 0.277
GGCCGGCAUGGUCCCAGCCUCCUCGCUGGCGCCGGCCGGGCAACAGUCCGAGGGGACCGUCCCCUCGGUAAUGGCGAAUGGGACCCA | 0.787
GGCCGGCAUGGUCCCAGCCUCCUCGCUGGCGCCGGCCGGGCAACACUCCGAGGGGACCGUCCCCUCGGUAAUGGCGAAUGGGACCCA | 0.914
GGCCGGCAUGGUCCCAGCCUCCUCGCUGGCGCCGGCGGGGCAACAUUCCGUGGGGACCGUCCCCUCGGUAAUGGCGAAUGGGACCCA | 0
GGCCGGCAUGGUCCCAGCCUCCUCGCUGGCGCCGGCGGGGCAACAUUCCGCGGGGACCGUCCCCUCGGUAAUGGCGAAUGGGACCCA | 0.0504
GGCCGGCAUGGUCCCAGCCUCCUCGCUGGCGCCGGCGGGGCACCAUUCCGAGGGGACCGUCCCCUCGGUAAUGGCGAAUGGGACCCA | 0.133
GGCCGGCAUGGUCCCAGCCUCCUCGCUGGCGCCGGCGGGGCAUCAUUCCGAGGGGACCGUCCCCUCGGUAAUGGCGAAUGGGACCCA | 0.208
GGCCGGCAUGGUCCCAGCCUCCUCGCUGGCGCCGGCGGGGCAGCAUUCCGAGGGGACCGUCCCCUCGGUAAUGGCGAAUGGGACCCA | 0
GGCCGGCAUGGUCCCAGCCUCCUCGCUGGCGCCGGCGGGGCAACAUUCCGAGGGGACAGUCCCCUCGGUAAUGGCGAAUGGGACCCA | 0.145
GGCCGGCAUGGUCCCAGCCUCCUCGCUGGCGCCGGCGGGGCAACAUUCCGAGGGGACUGUCCCCUCGGUAAUGGCGAAUGGGACCCA | 0.0504
GGCCGGCAUGGUCCCAGCCUCCUCGCUGGCGCCGGCGGGGCAACAUUCCGAGGGGACGGUCCCCUCGGUAAUGGCGAAUGGGACCCA | 0.369
GGCCGGCAUGGUCCCAGCCUCCUCGCUGGCGCCGGCCGGGCAACAUUCCGAGGGGACCGUCCCCCCGGUAAUGGCGAAUGGGACCCA | 1.05
GGCCGGCAUGGUCCCAGCCUCCUCGCUGGCGCCGGCCGGGCAACAUUCCGAGGGGACCGUCCCCACGGUAAUGGCGAAUGGGACCCA | 0.929
GGCCGGCAUGGUCCCAGCCUCCUCGCUGGCGCCGGCGGGGCAACAUUCCGAGGGGAUCGUCCCCUCGGUAAUGGCGAAUGGGACCCA | 0.0405
GGCCGGCAUGGUCCCAGCCUCCUCGCUGGCGCCGGCGGGGCAACAUUCCGAGGGGACCGUCCCCUCGGUAAUGGCGAAUGGGUCCCA | 0.156
GGCCGGCAUGGUCCCAGCCUCCUCGCUGGCGCCGGCGGGGCAACAUUCCGAGGGGACCGUCCCCUCGGUAAUGGCGAAUGGGGCCCA | 0.138
GGCCGGCAUGGUCCCAGCCUCCUCGCUGGCGCCGGCGGGGCAACAUUCCGAGGGGACCGUCCCCUCGGUAAUGGCGAAUGGGCCCCA | 0.0678
GGCCGGCAUGGUCCCAGCCUCCUCGCUGGCGCCGGCGGGGCAACAUUCCGAGGGGACCGUCCCCUCGGUAAUGGGGAAUGGGACCCA | 0
GGCCGGCAUGGUCCCAGCCUCCUCGCUGGCGCCGGCCGGGCAACAUUCCGAGGGGACCGUCCCCUCGGUAAUGGCGAAAGGGACCCA | 0.554
GGCCGGCAUGGUCCCAGCCUCCUCGCUGGCGCCGGCCGGGCAACAUUCCGAGGGGACCGUCCCCUCGGUAAUGGCGAAGGGGACCCA | 0.465
GGCCGGCAUGGUCCCAGCCUCCUCGCUGGCGCCGGCGGGGCAACAUUCCGAGGGGACCGUCCGCUCGGUAAUGGCGAAUGGGACCCA | 0.0615
GGCCGGCAUGGUCCCAGCCUCCUCGCUGGCGCCGGCGGGGCAACAUUCCGAGGGGACCGUCCUCUCGGUAAUGGCGAAUGGGACCCA | 0.151

Variant | self-cleavage
GGCCGGCAUGGUCCCAGCCUCCUCGCUGGCGCCGGCCGGGCAACAUUCCGAGGGGACCGUCCCCUCGUUAAUGGCGAAUGGGACCCA | 1.05
GGCCGGCAUGGUCCCAGCCUCCUCGCUGGCGCCGGCCGGGCAACAUUCCGAGGGGACCGUCCCCUCGCUAAUGGCGAAUGGGACCCA | 0.682
GGCCGGCAUGGUCCCAGCCUCCUCGCUGGCGCCGGCGGGGCGACAUUCCGAGGGGACCGUCCCCUCGGUAAUGGCGAAUGGGACCCA | 0.0723
GGCCGGCAUGGUCCCAGCCUCCUCGCUGGCGCCGGCGGGGCAACGUUCCGAGGGGACCGUCCCCUCGGUAAUGGCGAAUGGGACCCA | 0.0692
GGCCGGCAUGGUCCCAGCCUCCUCGCUGGCGCCGGCCGGGCAACAUUCCGAGGGGACCGUCCCCUCGGUAAUGCCGAAUGGGACCCA | 0.193
GGCCGGCAUGGUCCCAGCCUCCUCGCUGGCGCCGGCGGGGCAACAUUCCGAGGGGACCGUCCCCUCGGUAAUGGCGAAUGGGACACA | 0.0875
GGCCGGCAUGGUCCCAGCCUCCUCGCUGGCGCCGGCGGGGCAACAUUCCGAGGGGACCGUCCCCUCGGUAAUGGCGGAUGGGACCCA | 0.0831
GGCCGGCAUGGUCCCAGCCUCCUCGCUGGCGCCGGCGGGGCAACAUUCCGAGGGGACCGUCCCCUCGGUAAUGGCGCAUGGGACCCA | 0.158
GGCCGGCAUGGUCCCAGCCUCCUCGCUGGCGCCGGCGGGGCAACAUUCCGAGGGGACCGUUCCCUCGGUAAUGGCGAAUGGGACCCA | 0.138
GGCCGGCAUGGUCCCAGCCUCCUCGCUGGCGCCGGCCGGGCAACAUUCCGAGGGGACCGACCCCUCGGUAAUGGCGAAUGGGACCCA | 1.27
GGCCGGCAUGGUCCCAGCCUCCUCGCUGGCGCCGGCCGGGCAACAUUCCGAGGGGACCGCCCCCUCGGUAAUGGCGAAUGGGACCCA | 0.864
GGCCGGCAUGGUCCCAGCCUCCUCGCUGGCGCCGGCGGGGCAACAUUCCGAGGGGACCGUCCCCUGGGUAAUGGCGAAUGGGACCCA | 0.135
GGCCGGCAUGGUCCCAGCCUCCUCGCUGGCGCCGGCGGGGCAACAUUCCGAGGGGACCGUCCCCUAGGUAAUGGCGAAUGGGACCCA | 0.199
GGCCGGCAUGGUCCCAGCCUCCUCGCUGGCGCCGGCCGGGCAACAUUCCGAGGGGACCGUCCCCUCGGUAAUGGCGAAUGAGACCCA | 0.283
GGCCGGCAUGGUCCCAGCCUCCUCGCUGGCGCCGGCCGGGCAACAUUCCGAGGGGACCGUCCCCUCGGUAAUGGCGAAUGUGACCCA | 0.211
GGCCGGCAUGGUCCCAGCCUCCUCGCUGGCGCCGGCCGGGCAACAUUCCGAGGGGACCGUCCCCUCGGUAAUGGCGAAUGCGACCCA | 0.138
GGCCGGCAUGGUCCCAGCCUCCUCGCUGGCGCCGGCCGGGCAACAUUCCGAGGGGACCGUCCCCUCGGAAAUGGCGAAUGGGACCCA | 0.9
GGCCGGCAUGGUCCCAGCCUCCUCGCUGGCGCCGGCCGGGCAACAUUCCGAGGGGACCGUCCCCUCGGGAAUGGCGAAUGGGACCCA | 1.19
GGCCGGCAUGGUCCCAGCCUCCUCGCUGGCGCCGGCCGGGCAACAUUCCGAGGGGACCGUCCCCUCGGUAAUAGCGAAUGGGACCCA | 0.493
GGCCGGCAUGGUCCCAGCCUCCUCGCUGGCGCCGGCCGGGCAACAUUCCGAGGGGACCGUCCCCUCGGUAAUUGCGAAUGGGACCCA | 0.185
GGCCGGCAUGGUCCCAGCCUCCUCGCUGGCGCCGGCCGGGCAACAUUCCGAGGGGACCGUCCCCUCGGUAAUCGCGAAUGGGACCCA | 0.356
GGCCGGCAUGGUCCCAGCCUCCUCGCUGGCGCCGGCGGGGCAACAUUCCGAGGGGACCGUCUCCUCGGUAAUGGCGAAUGGGACCCA | 0.308

Variant | self-cleavage
GGCCGGCAUGGUCCCAGCCUCCUCGCUGGCGCCGGCGGGGCAACAUUCCGAGGGGACCGUCCCCUCGGUUAUGGCGAAUGGGACCCA | 0.229
GGCCGGCAUGGUCCCAGCCUCCUCGCUGGCGCCGGCGGGGCAACAUUCCGAGGGGACCGUCCCCUCGGUGAUGGCGAAUGGGACCCA | 0
GGCCGGCAUGGUCCCAGCCUCCUCGCUGGCGCCGGCGGGGCAAAAUUCCGAGGGGACCGUCCCCUCGGUAAUGGCGAAUGGGACCCA | 0.0791
GGCCGGCAUGGUCCCAGCCUCCUCGCUGGCGCCGGCGGGGCAAGAUUCCGAGGGGACCGUCCCCUCGGUAAUGGCGAAUGGGACCCA | 0.0692
GGCCGGCAUGGUCCCAGCCUCCUCGCUGGCGCCGGCCGGGCAACAUUCCGAGGGGACCGUCCCCUCGGUAACGGCGAAUGGGACCCA | 0.462
GGCCGGCAUGGUCCCAGCCUCCUCGCUGGCGCCGGCCGGGCAACAUUCCGAGGGGACCGUCCCCUCGGUAAGGGCGAAUGGGACCCA | 0.429
GGCCGGCAUGGUCCCAGCCUCCUCGCUGGCGCCGGCCGGGCAACAUUCCGAGGGGACCGUCCCCUCGGUAAAGGCGAAUGGGACCCA | 0.356
GGCCGGCAUGGUCCCAGCCUCCUCGCUGGCGCCGGCGGGGCAACAUUCCGAGGGGACCGUCCCCUCGGUAAUGGCGAAUGGGAACCA | 0.161
GGCCGGCAUGGUCCCAGCCUCCUCGCUGGCGCCGGCCGGGCAACAUUCCGAGGGGACCGUCCCCUCGGUAAUGGCAAAUGGGACCCA | 0.972
GGCCGGCAUGGUCCCAGCCUCCUCGCUGGCGCCGGCGGGGAAACAUUCCGAGGGGACCGUCCCCUCGGUAAUGGCGAAUGGGACCCA | 0
GGCCGGCAUGGUCCCAGCCUCCUCGCUGGCGCCGGCGGGGGAACAUUCCGAGGGGACCGUCCCCUCGGUAAUGGCGAAUGGGACCCA | 0.332
GGCCGGCAUGGUCCCAGCCUCCUCGCUGGCGCCGGCGGGGUAACAUUCCGAGGGGACCGUCCCCUCGGUAAUGGCGAAUGGGACCCA | 0.156
GGCCGGCAUGGUCCCAGCCUCCUCGCUGGCGCCGGCGGGGCAACAUUCCGAGGGGACCGUCCCCUCGGUAAUGGCGAUUGGGACCCA | 0
GGCCGGCAUGGUCCCAGCCUCCUCGCUGGCGCCGGCGGGGCAACAUUCCGAGGGGACCGUCCCCUCGGUAAUGGCGACUGGGACCCA | 0.196
GGCCGGCAUGGUCCCAGCCUCCUCGCUGGCGCCGGCGGGGCAACAUUCCGAGGGGACCGUCCCCUCGGUACUGGCGAAUGGGACCCA | 0.0831
GGCCGGCAUGGUCCCAGCCUCCUCGCUGGCGCCGGCGGGGCAACAUUCCGAGGGGACCGUCCCCUCGGUAUUGGCGAAUGGGACCCA | 0.0594
GGCCGGCAUGGUCCCAGCCUCCUCGCUGGCGCCGGCGGGGCAACAUUCCGAGGGGACCGUCCCCUCGGUAGUGGCGAAUGGGACCCA | 0.0594
GGCCGGCAUGGUCCCAGCCUCCUCGCUGGCGCCGGCGGGGCAACAUUCCGAGGGGACCGUCCCCUCGGUAAUGGCGAAUGGGACCCG | 0.0455
GGCCGGCAUGGUCCCAGCCUCCUCGCUGGCGCCGGCGGGGCAACAUUCCGAGGGGACCGUCCCCUCGGUAAUGGCGAAUGGGACCCU | 0.148
GGCCGGCAUGGUCCCAGCCUCCUCGCUGGCGCCGGCGGGGCAACAUUCCGAGGGGACCGUCCCCUCGGUAAUGGCGAAUGGGACCCC | 0.0764
